The record followed here is patent publication US20240376455.

For this series, the system named is T1, LPG10159 (Contaminated/multiple).
T1 sequence: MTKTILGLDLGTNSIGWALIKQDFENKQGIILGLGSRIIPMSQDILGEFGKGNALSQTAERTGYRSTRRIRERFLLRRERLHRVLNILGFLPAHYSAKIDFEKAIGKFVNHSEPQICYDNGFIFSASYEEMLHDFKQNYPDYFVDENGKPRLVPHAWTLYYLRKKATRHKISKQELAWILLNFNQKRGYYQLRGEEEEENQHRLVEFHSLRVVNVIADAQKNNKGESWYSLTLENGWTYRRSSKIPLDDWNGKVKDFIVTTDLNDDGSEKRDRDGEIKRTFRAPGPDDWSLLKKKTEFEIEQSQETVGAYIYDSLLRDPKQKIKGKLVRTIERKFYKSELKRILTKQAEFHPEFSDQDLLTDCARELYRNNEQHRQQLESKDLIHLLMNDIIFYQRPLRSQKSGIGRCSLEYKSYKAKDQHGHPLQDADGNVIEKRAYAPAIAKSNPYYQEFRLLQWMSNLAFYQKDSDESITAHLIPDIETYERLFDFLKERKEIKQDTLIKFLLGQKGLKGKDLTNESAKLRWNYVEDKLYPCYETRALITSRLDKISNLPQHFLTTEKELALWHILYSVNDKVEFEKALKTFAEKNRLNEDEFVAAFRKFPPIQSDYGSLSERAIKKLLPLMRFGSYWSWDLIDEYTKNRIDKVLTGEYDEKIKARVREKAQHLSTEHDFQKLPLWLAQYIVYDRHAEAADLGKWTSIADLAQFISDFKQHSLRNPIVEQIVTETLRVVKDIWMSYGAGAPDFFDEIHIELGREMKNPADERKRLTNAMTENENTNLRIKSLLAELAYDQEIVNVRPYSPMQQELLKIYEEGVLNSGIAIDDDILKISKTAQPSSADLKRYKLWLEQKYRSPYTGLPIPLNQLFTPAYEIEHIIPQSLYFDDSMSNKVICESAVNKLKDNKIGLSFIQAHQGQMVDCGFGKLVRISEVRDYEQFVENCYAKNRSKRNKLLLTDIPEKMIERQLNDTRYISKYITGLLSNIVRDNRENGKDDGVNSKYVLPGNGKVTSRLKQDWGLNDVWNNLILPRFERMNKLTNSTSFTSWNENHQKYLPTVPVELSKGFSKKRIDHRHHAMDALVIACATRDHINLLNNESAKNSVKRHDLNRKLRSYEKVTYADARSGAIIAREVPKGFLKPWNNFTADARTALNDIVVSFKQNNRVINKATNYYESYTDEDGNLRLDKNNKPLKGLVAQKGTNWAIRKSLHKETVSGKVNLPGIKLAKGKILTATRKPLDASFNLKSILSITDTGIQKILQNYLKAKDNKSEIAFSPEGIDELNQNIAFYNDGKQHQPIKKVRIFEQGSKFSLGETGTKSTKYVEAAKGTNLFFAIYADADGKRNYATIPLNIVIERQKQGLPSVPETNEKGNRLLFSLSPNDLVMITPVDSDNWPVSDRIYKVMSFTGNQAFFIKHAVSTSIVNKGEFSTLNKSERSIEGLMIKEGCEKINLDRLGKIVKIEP
Put plainly: cleavage_in_vitro. Conditions: PAM SEQ ID 83.

Regarding “GUUGUGAAUUGCUUUAAAGAAAGCAAUUCACAAUAAGGAUUAUUCCGUUGUGAAAACAUCUAGCGCCUCGUCUAUCUACGGGGCAUUUU / GATATAGACGTTGTGGCTGTTGTAGTAGAAATTC / GAATTTCTACTACAACAGCCACAACGTCTATATC [LPG10159 sgRNA L2 ; Library 2 target AGAAATTC]”, the activity (% target strand cleaved) is 2.5.
